Substrate in the data set: Nc1nc2c(ncn2[C@@H]2O[C@H](COP(=O)(O)OP(=O)(O)OP(=O)(O)O)[C@@H](O)[C@H]2O)c(=O)[nH]1
Description: steady-state kinetics, PK/LDH coupled GTPase assay (Km). The data set is classed as biochemical, Burkholderia cenocepacia. The settings on record: Mg2+ GTP binding site.

B1: FtsZ (BcFtsZ) (Burkholderia cenocepacia J2315) (protein)
chain: MEFEMLETETNGTIIKVVGVGGAGGNAVQHMINRGVQGVDFIVMNTDAQALSRSRASSVIQLGNTGLGAGAKPEMGRAAAEEARERIADALRGAHMVFITAGMGGGTGTGAAPVVAQIAKEMGILTVGVVSKPFEFEGGKRMRVAEAGSQQLEDHVDSLIVVLNDKLFDVMGDDAEMDKCFQCADDVLNNAVAGIAEIINVDGLVNVDFEDVKTVMGEQGKAMMGTATVAGVDRARLAAEQAVASPLLEGVDLSGARGVLVNITSSRSLRLSETREVMNTIKSYAAEDATVIFGAVYDDAMGDALRVTVVATGLGRAAKKQQSAPMTLLRTGTDNQPVSAVSHGYAPAQHVSTADYGALDTPAVWRNSRETAASHVQALQEKGVDTYDIPAFLRKQAD
notes: recombinant BcFtsZ (BCAL3457) from pET-28a, N-terminal histidine tag removed with PreScission protease
On to B1, for which the Km is 6.4 ± 0.8 µM.

Source of the values: article PMC6256756.
